{"source": "the nanobody polyreactivity screen of Harvey et al. (2022)", "data": [{"assay": "yeast display, Sf9 membrane polyspecificity reagent, FACS + sequencing; frameworks hold sequencing errors", "procedure,_shortened": "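In a synthetic yeast display library (Saccharomyces cerevisiae BJ5465), nanobody expression was induced with galactose for 36–48 hours. FACS gates were set low and high (top ~1%) using anti-HA fluorescence for expression and streptavidin fluorescence for binding of the Sf9 membrane reagent. Each polyreactivity label is drawn from the gate of origin.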", "values": [{"sequence": "QVQLVESGGGLVQAGGSLRLSCAASGNTFDGYDMGWYRQAPGKERELVAAITNTGASTYYADSVKGRFTISRDNAKNTVYLQMNSLKPEDTAVYYCTAQDSYPEDRHGMSYWGQGTQVTVSS", "polyreactivity (PSR sort gate)": "low polyreactivity"}, {"sequence": "QVQLVESGGGLVQAGGSLRLSCAASGNTFDRNAMGWYRQAPGKERELVAGISWRGGSTYYADSVKGRFTISRDNAKNTVYLQMNSLKPEDTAVYYCAAQRRYSTITGYGSWGQGTQVTVSS", "polyreactivity (PSR sort gate)": "high polyreactivity"}, {"sequence": "QVQLVESGGGLVQAGGSLRLSCAASGNTFDYYAMGWYRQAPGKERELVAAITRGGSTNYADSVKGRFTISRDNAKNTVSLQMNSLKPEDTAVYYCAAEQRAPRFADYDYWGQGTQVTVSS", "polyreactivity (PSR sort gate)": "low polyreactivity"}, {"sequence": "QVQLVESGGGLVQAGGSLRLSCAASGNTFFDYDMGWYRQAPGKERELVATITNSGTSTYYTDSVKGRFTISRDNAKNTVYLQMNSLKPEDTAVYYCAADLFYAVLGNEYDYWGQGTQVTVSS", "polyreactivity (PSR sort gate)": "high polyreactivity"}, {"sequence": "QVQLVESGGGLVQAGGSLRLSCAASGNTFFLYAMGWYRQAPGKERELVAVISASGGSTYFADSVKGRFTISRDNAKNTVYLQMNSVKPEDTAVYYCAKTPRTYYRYRNAFHYYYWGQGTQVTVSS", "polyreactivity (PSR sort gate)": "high polyreactivity"}, {"sequence": "QVQLVESGGGLVQAGGSLRLSCAASGNTFGDNAMGWYRQAPGKERELDAAISTGGNTYYADSVKGRFTISRDNAKNSVYLQMNSLKPEDTAVYYCNAKWIPDTLFGIHETEGDYWGQGTQVTVSS", "polyreactivity (PSR sort gate)": "low polyreactivity"}, {"sequence": "QVQLVESGGGLVQAGGSLRLSCAASGNTFGFYAMGWYRQAPGKERELVAGITSGDSTYYADSVKGRFTISRDNEKNTVYLQMNSLKPVDTAVYYCNADFTDSYWSRYDYWGQGTQVTVSS", "polyreactivity (PSR sort gate)": "low polyreactivity"}, {"sequence": "QVQLVESGGGLVQAGGSLRLSCAASGNTFGGYAMGWYRQAPGKERELVAAIRYSGTSTYYADSVKGRFTISRDNAKNTVYLQMNSLKPEDTAVYYCAATYTRVPNRFYYWGQGTQVTVSS", "polyreactivity (PSR sort gate)": "high polyreactivity"}, {"sequence": "QVQLVESGGGLVQAGGSLRLSCAASGNTFGNYGKGWYRQAPGKEREFVAAITSRGTSTYYADSVKGRFTISRDNAKNTVYLQMNSLKPEDTAVYYCNARPRYKYPRYDYWGQGTQVTVSS", "polyreactivity (PSR sort gate)": "high polyreactivity"}, {"sequence": "QVQLVESGGGLVQAGGSLRLSCAASGNTFGRYAMGWYRQAPGKERELVAAITKRGGTTYYADSVKGRFTISRDNAKNTVYLKMNSLKPEDTAVYYCAAKRSVLRTADYDYWGQGTQVTVSS", "polyreactivity (PSR sort gate)": "high polyreactivity"}, {"sequence": "QVQLVESGGGLVQAGGSLRLSCAASGNTFGTYVMGWYRPAPGKERELVAAISQSGGSTDYADSVKGRFTISRDNAKYTVYLQMNSLKPEETAVYYCAKVTWGTVWYRSPSEYDYWGQGTQVTVSS", "polyreactivity (PSR sort gate)": "low polyreactivity"}, {"sequence": "QVQLVESGGGLVQAGGSLRLSCAASGNTFHPYAMGWYRQAPGKVRELVAAITKSGGSTYYADSVKGRFTISRDNAKNTVYLQMNSLKPEDTAVYYCATDGYEYTDYGSSGYDYWGQGTQVTVSS", "polyreactivity (PSR sort gate)": "low polyreactivity"}, {"sequence": "QVQLVESGGGLVQAGGSLRLSCAASGNTFHSNAMGWYRQAPGKERELVAAITPSDGDTYYADSVKGRFTISRDNAKNTVYLQMNSLKPEDTSVYYCAAEDDPGEYEYWGQGTQVTVSS", "polyreactivity (PSR sort gate)": "low polyreactivity"}, {"sequence": "QVQLVESGGGLVQAGGSLRLSCAASGNTFKGYAMGWYRQAPGKERELVAAISWSGSSTYYADSVKGRFTISRDNAKNTVYVQMISLKPEDTAVYYCNRKYLGRYASVYGYGYWGQGTQVTVSS", "polyreactivity (PSR sort gate)": "high polyreactivity"}, {"sequence": "QVQLVESGGGLVQAGGSLRLSCAASGNTFLRNTMGWYRQAPGKERELVAAISWGGGTTYYADSVKGRFTISRDNAKNTVYLQINSLKPEDSAVYYCNARYYSRRGNSWGQGTQVTVSS", "polyreactivity (PSR sort gate)": "high polyreactivity"}, {"sequence": "QVQLVESGGGLVQAGGSLRLSCAASGNTFLRYAMGWYRQAPGKERELVAAISTSGDSTYYADSVKGRFTISRDNAKNTVYLQMNSLKPEDTAVYYCAAAWYIHTIAYGCWGQGTQVTVSS", "polyreactivity (PSR sort gate)": "high polyreactivity"}, {"sequence": "QVQLVESGGGLVQAGGSLRLSCAASGNTFLYYGMGWYRQAPGKERELVAAITSGGITYYADSVKGRFTISRDNAKNTVYLQMNSLKPEETAVYFCNKDVGFTRPLYYWGQGTQVTVSS", "polyreactivity (PSR sort gate)": "low polyreactivity"}, {"sequence": "QVQLVESGGGLVQAGGSLRLSCAASGNTFNRYAMGWYRQAPGKESELVATISYRGGSTSYADSVKGRFTISRDNAKNTVYLQMNSLKPEDTAVYYCATEEGYVLYKYYSWGQGTQVTVSS", "polyreactivity (PSR sort gate)": "low polyreactivity"}, {"sequence": "QVQLVESGGGLVQAGGSLRLSCAASGNTFNYYTMGWYRQEPGKERELVAAIRSGGRTYYADSVKGRFTISRDNAKNTVYLLMNSLIPEDTAVYDCAAVAVTYRYDYWGQGTQVTVSS", "polyreactivity (PSR sort gate)": "high polyreactivity"}, {"sequence": "QVQLVESGGGLVQAGGSLRLSCAASGNTFPGYAMGWYRQAPGKEREFVATITSNDGTTYYADSVKGRFTISRDNAKNTVYLQLNSLKPEDTAVYYCAKRLSDSWPPNWGYNYWGQGTQVTVSS", "polyreactivity (PSR sort gate)": "low polyreactivity"}, {"sequence": "QVQLVESGGGLVQAGGSLRLSCAASGNTFPINAMGWYRQAPGKERELVATITRPGGSTYYADSVKARFTISRDNAKNTVYLQMNSLKPEDTAVYYCAAANYTYASRWYDYWGQGTQVTVSS", "polyreactivity (PSR sort gate)": "low polyreactivity"}, {"sequence": "QVQLVESGGGLVQAGGSLRLSCAASGNTFPIYAMGWSRQAPGKERELVAAIRSSTGSTYYADSVKGRFTISRDYAKNTVYLQMNSLKPEATAVYYCAAAGVTSVVYGTRYYYWGQGTQVTVSS", "polyreactivity (PSR sort gate)": "high polyreactivity"}, {"sequence": "QVQLVESGGGLVQAGGSLRLSCAASGNTFRSYVMGWYRQAPGKERELVADISSGDGTNYADSVKGRFTISRDNAKNTVYLQMNSLKPEDTAVYYCAAEWSEESDYWGQGTQVTVSS", "polyreactivity (PSR sort gate)": "low polyreactivity"}, {"sequence": "QVQLVESGGGLVQAGGSLRLSCAASGNTFRWYAMGWYRQAPGKEREFVADITVRGGSTYYADSVKGRFTISRDNAKNTVYLQMNSLKPEDTAVYYCAVDFRRYPGFDYWGQGTQVTVSS", "polyreactivity (PSR sort gate)": "low polyreactivity"}, {"sequence": "QVQLVESGGGLVQAGGSLRLSCAASGNTFRWYAMGWYRQAPGKERELVATISRRGGITYYADSVKGRFTISRDNAKNTVYFQMNSLKPEDTAVYYCAAYSGSGLGAYDYWGQGTQVTVSS", "polyreactivity (PSR sort gate)": "high polyreactivity"}, {"sequence": "QVQLVESGGGLVQAGGSLRLSCAASGNTFRYYAMGWYRQAPGKERDLVAAISESGGRTYYADSVKGRFTISRDNAKKTVYLQMNSLKPEDTAFYYCAASRWARTWWYGYNYWGQGTQVTVSS", "polyreactivity (PSR sort gate)": "high polyreactivity"}, {"sequence": "QVQLVESGGGLVQAGGSLRLSCAASGNTFSVYAMGWYRQAPGKERELVAGITTSGGSTYYADSVKGRFTISRDNAKNTVYLQMNSLKPEDTAVYYCATDISTSYYYQYSSFYQYDSWGQGTQVTVSS", "polyreactivity (PSR sort gate)": "low polyreactivity"}, {"sequence": "QVQLVESGGGLVQAGGSLRLSCAASGNTFTRNAMGWYRQAPGKERELVAAITGRGGTYYADSVKGRFTISRDNAKNTVYLQMNSLKPEDTAVYYCNAVYRSSYQKGSMDYWGQGTQVTVSS", "polyreactivity (PSR sort gate)": "high polyreactivity"}, {"sequence": "QVQLVESGGGLVQAGGSLRLSCAASGNTFTWYTIGWYRQAPGKERELVAVITSDGSKYYADSVKGRFTISRDNAKNTFYLQMNSLKPEVTAVYYCTVGGGTNYGYGYWYGFYYWGQGTQVTVYS", "polyreactivity (PSR sort gate)": "low polyreactivity"}, {"sequence": "QVQLVESGGGLVQAGGSLRLSCAASGNTFTWYTIGWYRQAPGKERELVAVSTSDGSTYYADSVKGRFTISRDNAKHTVYLQMNSLKPEDTAVYYCTAGGGTNYGSGYWYGYYYWGQGTQVTVSS", "polyreactivity (PSR sort gate)": "low polyreactivity"}]}]}
